# Source: patent publication US20060036083
# System: ADP-ribosylated HNP-1
# Sequence (chain, as listed by the source): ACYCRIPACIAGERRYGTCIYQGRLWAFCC
substance,measurement,value
recombinant human ADP-ribosylarginine hydrolase,Release of ADP-ribose from ADP-ribosylated HNP-1 (MALDI-MS),"released a molecule of 3,444 daltons consistent with HNP-1 (calculated 3, 443 daltons)"
